{
  "source": "patent US20080312140A1",
  "about": "(published 2008)",
  "note": "Starred links: 1 amine or outer side, 2 acyl side, 3 side chain; linkers in the order of their positions; H or OH if unused. No end group written: not given here. N(2-Aminoethyl)Gly = O=C(CN(CCN[*:3])[*:1])[*:2]",
  "data": [
    {"target": "HIV-1 envelope glycoprotein gp120 (HIV-1)", "assay": "cell-based or functional assay", "units": {"IC50 of infection inhibition (Cell Infection Inhibition Assay, CD4 expressing Hela P4 cells)": "µM"}, "values": [
      {"binder": "RQGSFG-NH2 (bridge (positions not given here) via N(2-Aminoethyl)Gly; also: backbone cyclised via N-(aminoethyl)Gly building unit and dicarboxylic acid bridge (m=3), structure in drawing only)", "note": "[C2-2]", "IC50 of infection inhibition (Cell Infection Inhibition Assay, CD4 expressing Hela P4 cells)": 81},
      {"binder": "RQGSFG-NH2 (bridge (positions not given here) via N(2-Aminoethyl)Gly; also: backbone cyclised via N-(aminoethyl)Gly building unit and dicarboxylic acid bridge (m=2), structure in drawing only)", "note": "[C2-1]", "IC50 of infection inhibition (Cell Infection Inhibition Assay, CD4 expressing Hela P4 cells)": 33},
      {"binder": "RQGSFG-NH2 (bridge (positions not given here) via N(2-Aminoethyl)Gly; also: backbone cyclised via N-(aminoethyl)Gly building unit and dicarboxylic acid bridge (m=4), structure in drawing only)", "note": "[C2-3]", "IC50 of infection inhibition (Cell Infection Inhibition Assay, CD4 expressing Hela P4 cells)": 81}
    ]}
  ]
}
